Experimental data as given in paper PMC6826200, “An oligomeric state‐dependent switch in the ER enzyme FICD regulates AMPylation and deAMPylation of BiP” (The EMBO Journal, 2019).

Molecular target: the molecule itself
Assay: AUC; fluorescence-detected sedimentation velocity; Oregon Green-labelled FICD from 1.6 μM to 31 pM; 50 mM HEPES-KOH pH 7.4, 150 mM KCl, 10 mM MgCl2, 1 mM CaCl2, 0.3 mM TCEP, 0.1% Tween-20, 0.15 mg/ml BSA; 45,000 rpm, 20°C; monomer-dimer isotherm of signal-averaged s; dimer to monomers

B1: Oregon Green-labelled FICD^NC (wild-type FICD carrying an N-terminal cysteine) (domain or fragment, human)
chain: CLEARAALNQALEMKRQGKREKAQKLFMHALKMDPDFVDALTEFGIFSEEDKDIIQADYLYTRALTISPYHEKALVNRDRTLPLVEEIDQRYFSIIDSKVKKVMSIPKGNSALRRVMEETYYHHIYHTVAIEGNTLTLSEIRHILETRYAVPGKSLEEQNEVIGMHAAMKYINTTLVSRIGSVTISDVLEIHRRVLGYVDPVEAGRFRTTQVLVGHHIPPHPQDVEKQMQEFVQWLNSEEAMNLHPVEFAALAHYKLVYIHPFIDGNGRTSRLLMNLILMQAGYPPITIRKEQRSDYYHVLEAANEGDVRPFIRFIAKCTETTLDTLLFATTEYSVALPEAQP
modifications: Oregon Green 488 on the N-terminal cysteine (labelling efficiency 74%)
notes: N-terminal cysteine added for site-specific labelling; FICD (HYPE), human, residues 104-445; also called UK 2339; source: E. coli, purified, labelled with Oregon Green 488-iodoacetamide, SEC
  Kd: 1.2 nM
